Measured values taken from paper PMC11059001.

B1: truncated Trichinella spiralis calreticulin TsCRT^Δ (22-209, GSG linker, 305-364) W323A; V325A (protein)
chain: MGSSHHHHHHSSGENLYFQGGSEPTIYLKETFDDGDAWKERWVQSKHKDDYGEWQLSHGKLFADENDMGLKTMQDARFYSLSRKFDKVVDNKDKPLVIVYTVKHEQDIDCGGGYIKLMLENTDLEDFNSDTPYRIMFGPDICGPEKRAVHSILWHDGKNYEKRKNAIAMADIFTHAYKLIIFPNNSYEIWVNNDKEAYGRLEDDWTMTEPGSGPVPELYRYKGLGAIGFELAQAKSGTIFDNILITDDPEYAKEFIDKQLEALRPIEKVESDK
B2: truncated Trichinella spiralis calreticulin TsCRT^Δ (22-209, GSG linker, 305-364) D139A; H149A (protein)
chain: EPTIYLKETFDDGDAWKERWVQSKHKDDYGEWQLSHGKLFADENDMGLKTMQDARFYSLSRKFDKVVDNKDKPLVIVYTVKHEQDIDCGGGYIKLMLENTDLEDFNSDTPYRIMFGPAICGPEKRAVASILWHDGKNYEKRKNAIAMADIFTHAYKLIIFPNNSYEIWVNNDKEAYGRLEDDWTMTEPGSGPVPELYRYKGLGAIGFELWQVKSGTIFDNILITDDPEYAKEFIDKQLEALRPIEKVESDK
B3: truncated Trichinella spiralis calreticulin TsCRT^Δ (22-209, GSG linker, 305-364) M135A; I151A (protein)
chain: EPTIYLKETFDDGDAWKERWVQSKHKDDYGEWQLSHGKLFADENDMGLKTMQDARFYSLSRKFDKVVDNKDKPLVIVYTVKHEQDIDCGGGYIKLMLENTDLEDFNSDTPYRIAFGPDICGPEKRAVHSALWHDGKNYEKRKNAIAMADIFTHAYKLIIFPNNSYEIWVNNDKEAYGRLEDDWTMTEPGSGPVPELYRYKGLGAIGFELWQVKSGTIFDNILITDDPEYAKEFIDKQLEALRPIEKVESDK
B4: truncated Trichinella spiralis calreticulin TsCRT^Δ (22-209, GSG linker, 305-364) C141A; K145A (protein)
chain: EPTIYLKETFDDGDAWKERWVQSKHKDDYGEWQLSHGKLFADENDMGLKTMQDARFYSLSRKFDKVVDNKDKPLVIVYTVKHEQDIDCGGGYIKLMLENTDLEDFNSDTPYRIMFGPDIAGPEARAVHSILWHDGKNYEKRKNAIAMADIFTHAYKLIIFPNNSYEIWVNNDKEAYGRLEDDWTMTEPGSGPVPELYRYKGLGAIGFELWQVKSGTIFDNILITDDPEYAKEFIDKQLEALRPIEKVESDK

Molecular target: complement C1q, P02745;P02746;P02747
Assay: MST
Settings: chain shown with the change

Binder	Kd [µM]
B1	22.9
B2	19
B3	5.99
B4	34.8
